Results as given in the supplement of paper PMC10567573.

B1: FEM1B (parent)
chain: TLAALLLNRSESDIRYLLGYVSQQ

Variants of: B1
Assay: protein stability index of a GFP-peptide fusion (GPS, HEK-293T) (PSI 1-6); higher = more stable
Settings: c terminus: a fixed tail appended
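Further: lentivirally expressed fusions sorted by FACS into six bins by GFP to DsRed ratio, PSI derived from sequencing read proportions per bin multiplied by bin number.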

Compared with TLAALLKNRSESDIRYLLGYVSQQ [L7K], TLAALLRNRSESDIRYLLGYVSQQ [L7R] is lower in protein stability index: 2.38 for the first, 1.78 for the second.

First: TLAALLANRSESDIRYLLGYVSQQ [L7A]
Second: TLAALLNNRSESDIRYLLGYVSQQ [L7N]
The protein stability index of the first is higher: 2.03 for the first, 1.95 for the second.

First: TLAALLCNRSESDIRYLLGYVSQQ [L7C]
Second: TLAALLENRSESDIRYLLGYVSQQ [L7E]
The protein stability index of the first is higher: 2.03 for the first, 1.42 for the second.

First: TLAALLYNRSESDIRYLLGYVSQQ [L7Y]
Second: TLAALLPNRSESDIRYLLGYVSQQ [L7P]
The protein stability index of the first is lower: 1.28 for the first, 1.3 for the second.

Compared with TLAALLGNRSESDIRYLLGYVSQQ [L7G], TLAALLHNRSESDIRYLLGYVSQQ [L7H] is lower in protein stability index: 1.79 for the first, 1.7 for the second.

Compared with TLAALLDNRSESDIRYLLGYVSQQ [L7D], TLAALLSNRSESDIRYLLGYVSQQ [L7S] is lower in protein stability index: 1.97 for the first, 1.31 for the second.

First: TLAALLFNRSESDIRYLLGYVSQQ [L7F]
Second: TLAALLQNRSESDIRYLLGYVSQQ [L7Q]
The protein stability index of the first is higher: 2.56 for the first, 1.79 for the second.

Compared with TLAALLMNRSESDIRYLLGYVSQQ [L7M], TLAALLWNRSESDIRYLLGYVSQQ [L7W] is lower in protein stability index: 2.58 for the first, 2.28 for the second.

First: TLAALLLNRSEWDIRYLLGYVSQQ [S12W]
Second: TLAALLLNRSEYDIRYLLGYVSQQ [S12Y]
The protein stability index of the first is higher: 3.62 for the first, 2.93 for the second.

Compared with TLAALLLNRSEEDIRYLLGYVSQQ [S12E], TLAALLLNRSEADIRYLLGYVSQQ [S12A] is lower in protein stability index: 3.18 for the first, 2.19 for the second.

Going from TLAALLLNRSEGDIRYLLGYVSQQ [S12G] to TLAALLLNRSEMDIRYLLGYVSQQ [S12M], the protein stability index falls from 3.69 to 2.33.

Going from TLAALLLNRSELDIRYLLGYVSQQ [S12L] to TLAALLLNRSEFDIRYLLGYVSQQ [S12F], the protein stability index rises from 2.36 to 2.89.

Going from TLAALLLNRSEDDIRYLLGYVSQQ [S12D] to TLAALLLNRSEKDIRYLLGYVSQQ [S12K], the protein stability index rises from 2.71 to 3.14.

Compared with TLAALLLNRSEQDIRYLLGYVSQQ [S12Q], TLAALLLNRSENDIRYLLGYVSQQ [S12N] is higher in protein stability index: 2.69 for the first, 2.79 for the second.

First: TLAALLLNRSEVDIRYLLGYVSQQ [S12V]
Second: TLAALLLNRSERDIRYLLGYVSQQ [S12R]
The protein stability index of the first is lower: 1.73 for the first, 2.36 for the second.

Going from TLAALLLNRSEHDIRYLLGYVSQQ [S12H] to TLAALLLNRSETDIRYLLGYVSQQ [S12T], the protein stability index falls from 2.48 to 2.18.

Going from TLAALLLNRSEIDIRYLLGYVSQQ [S12I] to TLAALLLNRSEPDIRYLLGYVSQQ [S12P], the protein stability index rises from 3.15 to 3.27.

Compared with TLAALCLNRSESDIRYLLGYVSQQ [L6C], TLAALQLNRSESDIRYLLGYVSQQ [L6Q] is higher in protein stability index: 1.21 for the first, 1.38 for the second.

Going from TLAALKLNRSESDIRYLLGYVSQQ [L6K] to TLAALSLNRSESDIRYLLGYVSQQ [L6S], the protein stability index falls from 2.37 to 1.82.

First: TLAALRLNRSESDIRYLLGYVSQQ [L6R]
Second: TLAALDLNRSESDIRYLLGYVSQQ [L6D]
The protein stability index of the first is lower: 1.76 for the first, 2.5 for the second.

First: TLAALHLNRSESDIRYLLGYVSQQ [L6H]
Second: TLAALFLNRSESDIRYLLGYVSQQ [L6F]
The protein stability index of the first is lower: 1.85 for the first, 2.65 for the second.

First: TLAALMLNRSESDIRYLLGYVSQQ [L6M]
Second: TLAALILNRSESDIRYLLGYVSQQ [L6I]
The protein stability index of the first is lower: 2.56 for the first, 2.88 for the second.

First: TLAALNLNRSESDIRYLLGYVSQQ [L6N]
Second: TLAALELNRSESDIRYLLGYVSQQ [L6E]
The protein stability index of the first is higher: 1.8 for the first, 1.7 for the second.

Going from TLAALALNRSESDIRYLLGYVSQQ [L6A] to TLAALVLNRSESDIRYLLGYVSQQ [L6V], the protein stability index rises from 2.12 to 2.22.

First: TLAALGLNRSESDIRYLLGYVSQQ [L6G]
Second: TLAALPLNRSESDIRYLLGYVSQQ [L6P]
The protein stability index of the first is lower: 1.97 for the first, 2.21 for the second.

First: TLAALTLNRSESDIRYLLGYVSQQ [L6T]
Second: TLAALLLNRSTSDIRYLLGYVSQQ [E11T]
The protein stability index of the first is lower: 1.76 for the first, 2.44 for the second.

Going from TLAALLLNRSNSDIRYLLGYVSQQ [E11N] to TLAALLLNRSGSDIRYLLGYVSQQ [E11G], the protein stability index falls from 3.2 to 3.03.

Compared with TLAALLLNRSLSDIRYLLGYVSQQ [E11L], TLAALLLNRSYSDIRYLLGYVSQQ [E11Y] is higher in protein stability index: 3.34 for the first, 3.35 for the second.

Going from TLAALLLNRSMSDIRYLLGYVSQQ [E11M] to TLAALLLNRSDSDIRYLLGYVSQQ [E11D], the protein stability index falls from 3.08 to 2.49.

Compared with TLAALLLNRSWSDIRYLLGYVSQQ [E11W], TLAALLLNRSISDIRYLLGYVSQQ [E11I] is higher in protein stability index: 2.68 for the first, 4.17 for the second.

Going from TLAALLLNRSCSDIRYLLGYVSQQ [E11C] to TLAALLLNRSKSDIRYLLGYVSQQ [E11K], the protein stability index falls from 3.04 to 2.83.

Compared with TLAALLLNRSRSDIRYLLGYVSQQ [E11R], TLAALLLNRSHSDIRYLLGYVSQQ [E11H] is higher in protein stability index: 3.13 for the first, 3.15 for the second.

Compared with TLAALLLNRSPSDIRYLLGYVSQQ [E11P], TLAALLLNRSFSDIRYLLGYVSQQ [E11F] is higher in protein stability index: 2.08 for the first, 3.19 for the second.

Compared with TLAALLLNRSASDIRYLLGYVSQQ [E11A], TLAALLLNRSQSDIRYLLGYVSQQ [E11Q] is lower in protein stability index: 2.44 for the first, 1.99 for the second.

Compared with TLAALLLNRSSSDIRYLLGYVSQQ [E11S], TLAALLLNRSVSDIRYLLGYVSQQ [E11V] is lower in protein stability index: 3.2 for the first, 2.96 for the second.

First: TLAALLLNCSESDIRYLLGYVSQQ [R9C]
Second: TLAALLLNSSESDIRYLLGYVSQQ [R9S]
The protein stability index of the first is lower: 2.13 for the first, 2.7 for the second.

Going from TLAALLLNLSESDIRYLLGYVSQQ [R9L] to TLAALLLNKSESDIRYLLGYVSQQ [R9K], the protein stability index falls from 3.24 to 1.96.

Compared with TLAALLLNVSESDIRYLLGYVSQQ [R9V], TLAALLLNESESDIRYLLGYVSQQ [R9E] is lower in protein stability index: 2.67 for the first, 1.98 for the second.

First: TLAALLLNFSESDIRYLLGYVSQQ [R9F]
Second: TLAALLLNNSESDIRYLLGYVSQQ [R9N]
The protein stability index of the first is higher: 2.9 for the first, 2.57 for the second.

Going from TLAALLLNDSESDIRYLLGYVSQQ [R9D] to TLAALLLNISESDIRYLLGYVSQQ [R9I], the protein stability index rises from 2.9 to 3.29.

First: TLAALLLNYSESDIRYLLGYVSQQ [R9Y]
Second: TLAALLLNPSESDIRYLLGYVSQQ [R9P]
The protein stability index of the first is higher: 2.52 for the first, 1.92 for the second.

Compared with TLAALLLNTSESDIRYLLGYVSQQ [R9T], TLAALLLNHSESDIRYLLGYVSQQ [R9H] is lower in protein stability index: 2.94 for the first, 1.58 for the second.

Compared with TLAALLLNQSESDIRYLLGYVSQQ [R9Q], TLAALLLNGSESDIRYLLGYVSQQ [R9G] is higher in protein stability index: 1.96 for the first, 3.4 for the second.

First: TLAALLLNWSESDIRYLLGYVSQQ [R9W]
Second: TLAARLLNRSESDIRYLLGYVSQQ [L5R]
The protein stability index of the first is lower: 2.79 for the first, 3.37 for the second.

Compared with TLAAQLLNRSESDIRYLLGYVSQQ [L5Q], TLAATLLNRSESDIRYLLGYVSQQ [L5T] is lower in protein stability index: 3.07 for the first, 2.71 for the second.

Compared with TLAAGLLNRSESDIRYLLGYVSQQ [L5G], TLAAMLLNRSESDIRYLLGYVSQQ [L5M] is higher in protein stability index: 1.12 for the first, 3.24 for the second.

Compared with TLAANLLNRSESDIRYLLGYVSQQ [L5N], TLAAVLLNRSESDIRYLLGYVSQQ [L5V] is higher in protein stability index: 1.76 for the first, 3.12 for the second.
